# Laboratory results from the supplement of paper PMC9112550, “Optimization of the antimicrobial peptide Bac7 by deep mutational scanning” (BMC Biology, 2022).
# Tested on: Escherichia coli TOP10
# Assay: shrunken log2 fold change of peptide-encoding DNA abundance (4.5 h post-induction vs induction); higher = less antimicrobial activity (less host growth inhibition)
# Conditions: time post-induction: 4.5 h; library: site-saturation at positions 5, 18, 19, 20
# 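Further: peptides expressed intracellularly from a pBAD plasmid library in pooled LB shake-flask culture, induced with 0.3% L-arabinose, DNA abundance read by NGS, three biological replicates, DESeq2 with apeglm shrinkage.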
row,Sequence,shrunken log2 fold change
1,RRIRMRPPRLPRPRPRPQCNPRP,0.041
2,RRIRDRPPRLPRPRPRPTRGPRP,0.67
3,RRIRHRPPRLPRPRPRPTGAPRP,0.0132
4,RRIRNRPPRLPRPRPRPNGTPRP,-0.167
5,RRIRSRPPRLPRPRPRPCREPRP,0.157
6,RRIRKRPPRLPRPRPRPEQFPRP,-0.0303
7,RRIRGRPPRLPRPRPRPHVYPRP,0.469
8,RRIRGRPPRLPRPRPRPQYMPRP,-0.195
9,RRIRPRPPRLPRPRPRPPGGPRP,0.968
10,RRIRDRPPRLPRPRPRPVKYPRP,-0.346
11,RRIRCRPPRLPRPRPRPLMRPRP,0.715
12,RRIRIRPPRLPRPRPRPQTDPRP,-0.232
13,RRIRERPPRLPRPRPRPDQHPRP,-0.165
14,RRIRMRPPRLPRPRPRPSQPPRP,0.22
15,RRIRKRPPRLPRPRPRPYYYPRP,-0.704
16,RRIRDRPPRLPRPRPRPRTIPRP,-0.018
17,RRIRWRPPRLPRPRPRPAQSPRP,0.135
18,RRIRRRPPRLPRPRPRPDNYPRP,-0.323
19,RRIRDRPPRLPRPRPRPDQHPRP,0.132
20,RRIRMRPPRLPRPRPRPFFWPRP,0.593
21,RRIRRRPPRLPRPRPRPSNRPRP,-0.0253
22,RRIRHRPPRLPRPRPRPQCAPRP,0.191
23,RRIRTRPPRLPRPRPRPHPDPRP,-0.00834
24,RRIRWRPPRLPRPRPRPNYIPRP,-0.57
25,RRIRVRPPRLPRPRPRPVPWPRP,0.0916

row,Sequence,shrunken log2 fold change
1,RRIRERPPRLPRPRPRPRDFPRP,-0.134
2,RRIRQRPPRLPRPRPRPKDTPRP,-0.0272
3,RRIRPRPPRLPRPRPRPCMPPRP,-0.534
4,RRIRARPPRLPRPRPRPGCVPRP,0.851
5,RRIRDRPPRLPRPRPRPRFPPRP,1.75
6,RRIRARPPRLPRPRPRPFDNPRP,0.098
7,RRIRFRPPRLPRPRPRPPECPRP,-0.0973
8,RRIRMRPPRLPRPRPRPHGIPRP,0.0295
9,RRIRTRPPRLPRPRPRPLKWPRP,-0.205
10,RRIRDRPPRLPRPRPRPFHVPRP,-0.0179
11,RRIRKRPPRLPRPRPRPPHSPRP,0.509
12,RRIRARPPRLPRPRPRPNVIPRP,-0.433
13,RRIRFRPPRLPRPRPRPVAVPRP,0.105
14,RRIRMRPPRLPRPRPRPSCCPRP,0.291
15,RRIRQRPPRLPRPRPRPLYRPRP,0.0401
16,RRIRARPPRLPRPRPRPQRYPRP,-0.071
17,RRIRVRPPRLPRPRPRPAECPRP,-0.0646
18,RRIRPRPPRLPRPRPRPFQFPRP,-0.467
19,RRIRQRPPRLPRPRPRPATSPRP,0.0218
20,RRIRWRPPRLPRPRPRPGISPRP,-0.00138
21,RRIRERPPRLPRPRPRPENDPRP,-0.0725
22,RRIRCRPPRLPRPRPRPDGCPRP,-0.0861
23,RRIRTRPPRLPRPRPRPILSPRP,-0.0676
24,RRIRHRPPRLPRPRPRPVSHPRP,0.0628
25,RRIRIRPPRLPRPRPRPHAGPRP,-0.242

row,Sequence,shrunken log2 fold change
1,RRIRFRPPRLPRPRPRPKWTPRP,-0.196
2,RRIRTRPPRLPRPRPRPLIEPRP,-0.325
3,RRIRKRPPRLPRPRPRPELPPRP,0.114
4,RRIRARPPRLPRPRPRPKGEPRP,0.556
5,RRIRHRPPRLPRPRPRPYWHPRP,-0.666
6,RRIRKRPPRLPRPRPRPCCHPRP,-1.07
7,RRIRSRPPRLPRPRPRPEGMPRP,0.392
8,RRIRKRPPRLPRPRPRPYKPPRP,-0.0134
9,RRIRMRPPRLPRPRPRPMCVPRP,1.45
10,RRIRQRPPRLPRPRPRPRMEPRP,-0.194
11,RRIRPRPPRLPRPRPRPAFIPRP,-0.222
12,RRIRARPPRLPRPRPRPQVNPRP,-0.196
13,RRIRFRPPRLPRPRPRPCGVPRP,0.0327
14,RRIRRRPPRLPRPRPRPPHMPRP,1.11
15,RRIRLRPPRLPRPRPRPFNFPRP,-0.855
16,RRIRVRPPRLPRPRPRPAVMPRP,-0.0705
17,RRIRCRPPRLPRPRPRPGCSPRP,-0.182
18,RRIRWRPPRLPRPRPRPFPAPRP,0.342
19,RRIRWRPPRLPRPRPRPYRPPRP,-0.573
20,RRIRDRPPRLPRPRPRPDVAPRP,0.0356
21,RRIRMRPPRLPRPRPRPSEPPRP,0.33
22,RRIRKRPPRLPRPRPRPDHIPRP,-0.0249
23,RRIRRRPPRLPRPRPRPSMCPRP,0.008
24,RRIRLRPPRLPRPRPRPNEHPRP,-0.175
25,RRIRWRPPRLPRPRPRPDSQPRP,-0.0844

row,Sequence,shrunken log2 fold change
1,RRIRYRPPRLPRPRPRPYDQPRP,-0.124
2,RRIRVRPPRLPRPRPRPDCQPRP,0.00516
3,RRIRYRPPRLPRPRPRPTHSPRP,-0.698
4,RRIRMRPPRLPRPRPRPYGIPRP,-0.0497
5,RRIRWRPPRLPRPRPRPYKYPRP,-0.977
6,RRIRLRPPRLPRPRPRPELDPRP,0.273
7,RRIRVRPPRLPRPRPRPLNWPRP,1.03
8,RRIRFRPPRLPRPRPRPPEKPRP,0.078
9,RRIRNRPPRLPRPRPRPDWIPRP,0.0186
10,RRIRSRPPRLPRPRPRPDYSPRP,-0.464
11,RRIRTRPPRLPRPRPRPHCGPRP,-0.0402
12,RRIRHRPPRLPRPRPRPIVSPRP,-0.0219
13,RRIRPRPPRLPRPRPRPVFIPRP,-0.235
14,RRIRDRPPRLPRPRPRPMDAPRP,0.251
15,RRIRCRPPRLPRPRPRPWRYPRP,0.0621
16,RRIRLRPPRLPRPRPRPHWKPRP,0.0019
17,RRIRKRPPRLPRPRPRPRKQPRP,0.224
18,RRIRQRPPRLPRPRPRPTDIPRP,-0.0659
19,RRIRNRPPRLPRPRPRPIGCPRP,0.0526
20,RRIRKRPPRLPRPRPRPYEQPRP,-0.0536
21,RRIRCRPPRLPRPRPRPKWKPRP,0.329
22,RRIRWRPPRLPRPRPRPDKCPRP,-0.134
23,RRIRKRPPRLPRPRPRPHADPRP,0.0566
24,RRIRGRPPRLPRPRPRPENMPRP,0.325
25,RRIRMRPPRLPRPRPRPSKMPRP,-0.0315

row,Sequence,shrunken log2 fold change
1,RRIRGRPPRLPRPRPRPVHYPRP,0.109
2,RRIRSRPPRLPRPRPRPSKWPRP,-0.285
3,RRIRHRPPRLPRPRPRPINWPRP,-0.35
4,RRIRWRPPRLPRPRPRPKIVPRP,-0.272
5,RRIRNRPPRLPRPRPRPIWMPRP,0.178
6,RRIRYRPPRLPRPRPRPIIHPRP,-1.21
7,RRIRARPPRLPRPRPRPNYDPRP,-0.36
8,RRIRNRPPRLPRPRPRPTFQPRP,0.0675
9,RRIRLRPPRLPRPRPRPEFKPRP,-0.4
10,RRIRKRPPRLPRPRPRPESAPRP,1.72
11,RRIRWRPPRLPRPRPRPLHCPRP,-0.444
12,RRIRDRPPRLPRPRPRPHYAPRP,-0.00151
13,RRIRMRPPRLPRPRPRPFQDPRP,-0.235
14,RRIRYRPPRLPRPRPRPDIHPRP,-0.549
15,RRIRYRPPRLPRPRPRPIDNPRP,-0.542
16,RRIRKRPPRLPRPRPRPAKLPRP,0.446
17,RRIRNRPPRLPRPRPRPGRDPRP,0.366
18,RRIRGRPPRLPRPRPRPCYEPRP,0.219
19,RRIRQRPPRLPRPRPRPQMPPRP,-1.26
20,RRIRMRPPRLPRPRPRPGVMPRP,0.633
21,RRIRRRPPRLPRPRPRPSHHPRP,-0.173
22,RRIRERPPRLPRPRPRPWEAPRP,0.74
23,RRIRSRPPRLPRPRPRPCQHPRP,-0.128
24,RRIRPRPPRLPRPRPRPEDRPRP,0.0448
25,RRIRLRPPRLPRPRPRPTTNPRP,-0.0886

row,Sequence,shrunken log2 fold change
1,RRIRIRPPRLPRPRPRPCNKPRP,-0.47
2,RRIRSRPPRLPRPRPRPQHAPRP,-0.153
3,RRIRFRPPRLPRPRPRPFHQPRP,-0.192
4,RRIRARPPRLPRPRPRPDPYPRP,-0.169
5,RRIRDRPPRLPRPRPRPWLFPRP,0.0977
6,RRIRNRPPRLPRPRPRPWNTPRP,0.0705
7,RRIRMRPPRLPRPRPRPWAKPRP,0.0317
8,RRIRFRPPRLPRPRPRPMEHPRP,-0.416
9,RRIRGRPPRLPRPRPRPAKRPRP,0.504
10,RRIRHRPPRLPRPRPRPASDPRP,-0.0278
11,RRIRMRPPRLPRPRPRPECPPRP,0.43
12,RRIRRRPPRLPRPRPRPYHGPRP,-0.169
13,RRIRGRPPRLPRPRPRPGRLPRP,0.706
14,RRIRFRPPRLPRPRPRPAANPRP,0.22
15,RRIRERPPRLPRPRPRPMKIPRP,0.0286
16,RRIRSRPPRLPRPRPRPNPIPRP,0.0127
17,RRIRDRPPRLPRPRPRPVDVPRP,-0.185
18,RRIRPRPPRLPRPRPRPAMLPRP,0.233
19,RRIRRRPPRLPRPRPRPVHNPRP,0.0641
20,RRIRERPPRLPRPRPRPVMQPRP,0.095
21,RRIRWRPPRLPRPRPRPCERPRP,-0.0115
22,RRIRPRPPRLPRPRPRPLEQPRP,0.169
23,RRIRQRPPRLPRPRPRPRTHPRP,0.167
24,RRIRSRPPRLPRPRPRPMLIPRP,-0.131
25,RRIRVRPPRLPRPRPRPQQLPRP,-0.0555
